{"source": "paper PMC10858965", "experiment_in_all_cases": "filter binding", "conditions_in_all_cases": "1 mM MgCl2 in FB buffer; Filter binding: 3 parts FB buffer (50 mM Tris pH 8.0, 1 mM MgCl2) + 1 part SEC buffer (20 mM HEPES pH 7.5, 150 mM NaCl, 1 mM DTT, 10% glycerol), 5 min, room …", "key": {"[1]": {"system": "Lig4 delta-DBD;XRCC4 (Xenopus laevis;Xenopus laevis?)"}, "[2]": {"system": "Lig4 mDBD2;XRCC4 (Xenopus laevis;Xenopus laevis?)"}, "[3]": {"system": "Lig4 mDBD1;XRCC4 (Xenopus laevis;Xenopus laevis?)"}, "[4]": {"system": "Lig4 mDBD1+2;XRCC4 (Xenopus laevis;Xenopus laevis?)"}}, "data": [{"substance": "~1 kb circular DNA", "values": [{"measurement": "binding signal (fold weaker than WT)", "setting": "[1]", "value": 30}, {"measurement": "binding signal (fold weaker than WT)", "setting": "[2]", "value": 10}, {"measurement": "binding signal (fold weaker than WT)", "setting": "[3]", "value": 10}, {"measurement": "binding signal (fold weaker than WT)", "setting": "[4]", "value": 30}]}]}
